In the experiment the target is H1 NC99 HA trimer (full-length trimeric ectodomain of H1N1 A/New Caledonia/20/1999 hemagglutinin) (influenza A virus H1N1 A/New Caledonia/20/1999). The experiment can be described thus: cryo-EM structure; HA NC99 and Fab mixed at a molar ratio of 1:1.5 (HA protomer:Fab), 5 min at room temperature; graphene grids, 0.01 mg/ml.

One substance from paper doi:10.1101/2025.02.21.639368 can be followed below.

One may read the stoichiometry N as a count of units in the complex or per binding partner. With “H1 NC99 HA trimer (full-length trimeric ectodomain of H1N1 A/New Caledonia/20/1999 hemagglutinin) (natural protein)”, the stoichiometry N was 3.
